In article PMC6744409:

Biological target: LptB2FG from Shigella flexneri (Shigella flexneri) (UniProt P0A9V4)

LptC from Shigella flexneri (subunit of sfLptB2FGC) (from UniProt P0ADW2 1-191) (natural protein)
ATPase activity of purified sfLptB2FGC compared with sfLptB2FG under the same conditions: 50 % less
